In US20130122005A1 (published 2013):

What was measured:
Assay in all cases: cell-based or functional assay
human IGF-1 [1] = biological target: T1, human IGF-1 (human, UniProt P05019 49-118)
human IGF-2 [2] = biological target: T2, human IGF-2 (human, UniProt P01344 25-91)
human IGF-2 [3] = biological target: T2, human IGF-2; remark: listed apart in the source
human IGF-1 [4] = biological target: T1, human IGF-1; remark: listed apart in the source
human IGF-2 [5] = biological target: T2, human IGF-2; remark: listed apart in the source

T2 sequence (P01344 25-91 limits assumed): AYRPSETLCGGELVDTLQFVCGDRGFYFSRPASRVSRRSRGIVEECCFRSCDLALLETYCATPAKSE
T1 sequence (P05019 49-118): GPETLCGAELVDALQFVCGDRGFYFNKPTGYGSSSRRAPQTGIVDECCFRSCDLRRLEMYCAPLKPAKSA

| Binder | IC50, IGF-1 induced COLO-205 cell proliferation (human IGF-1 [1]) | IC50, IGF-1 induced MCF7 cell proliferation (human IGF-1 [1]) | IC50, IGF-2 induced COLO 205 cell proliferation (human IGF-2 [2]) | IC50, IGF-2 induced MCF7 cell proliferation (human IGF-2 [2]) | IC50, IGF-2 (100 ng/mL) induced IR-A phosphorylation, cell-based ELISA (human IGF-2 [3]) | IC50, IGF-1 (20 ng/mL) induced IGF-1R phosphorylation, cell-based ELISA (human IGF-1 [4]) | IC50, IGF-2 (100 ng/mL) induced IGF-1R phosphorylation, cell-based ELISA (human IGF-2 [5]) |
| --- | --- | --- | --- | --- | --- | --- | --- |
| antibody 60814 (antibody, human IgG1, lambda, V domains shown) VH: QVELVESGGGLVQPGGSLRLSCAASGFTFSNYWMHWVRQAPGKGLEWVSGISGWSSWTYYADSVKGRFTISRDNSKNTLYLQMNSLRAEDTAVYYCARFGIDAYTKVYFDYWGQGTLVTVSS VL: DIELTQPPSVSVAPGQTARISCSGDNIPLKYVSWYQQKPGQAPVLVIHDDNKRPSGIPERFSGSNSGNTATLTISGTQAEDEADYYCSSWDTLDIFNVFGGGTKLTVLG | 0.135 µg/mL | 0.0241 µg/mL | 0.576 µg/mL | 0.0782 µg/mL | – | – | – |
| antibody 60819 (antibody, human IgG1, lambda, V domains shown) VH: QVELVESGGGLVQPGGSLRLSCAASGFTFSNYWMHWVRQAPGKGLEWVSGISGWSSWTYYADSVKGRFTISRDNSKNTLYLQMNSLRAEDTAVYYCARFGIDAYTKVYFDYWGQGTLVTVSS VL: DIELTQPPSVSVAPGQTARISCSGDNIPLKYVSWYQQKPGQAPVLVIHDDNKRPSGIPERFSGSNSGNTATLTISGTQAEDEADYYCQSYDYFPKFVVFGGGTKLTVLG | 0.217 µg/mL | 0.054 µg/mL | 0.101 µg/mL | 0.0408 µg/mL | – | – | – |
| antibody 60833 (antibody, human IgG1, lambda, V domains shown) VH: QVELVESGGGLVQPGGSLRLSCAASGFTFTSYWMSWVRQAPGKGLELVSSITSYGSFTYYADSVKGRFTISRDNSKNTLYLQMNSLRAEDTAVYYCARNMYTHFDSWGQGTLVTVSS VL: DIVLTQPPSVSGAPGQRVTISCSGSSSNIGSNSVSWYQQLPGTAPKLLIYDNSKRPSGVPDRFSGSKSGTSASLAITGLQSEDEADYYCQSRDTYGYYWVFGGGTKLTVLG | 0.165 µg/mL | 0.0386 µg/mL | 0.632 µg/mL | 0.0812 µg/mL | 0.82 µg/mL | 0.09 µg/mL | 1.12 µg/mL |
